Source: the supplement of paper PMC10567573
± gives the standard deviation.

Test: protein stability index of a GFP-peptide fusion (GPS, HEK-293T) (PSI 1-6); higher = more stable
Conditions: c terminus: a fixed tail appended
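Also: 24-mer peptide tiles fused after GFP, lentivirally expressed, FACS-sorted into six equal bins by GFP/DsRed ratio, decoded by Illumina sequencing, PSI is the read-weighted mean bin number.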

Row | Sequence | protein stability index (treatment: DMSO) | protein stability index (treatment: MLN4924 1 uM, 8 h)
1 | KSPQFNRYFYLLENIAWVKSYNIC [PDS5B] | 2.17 ± 0.19 | 2.27 ± 0.14
2 | ALVVALWGPLQDSLEHTLRVAIAH [TSPAN10] | 2.89 ± 0.12 | 3.05 ± 0.15
3 | NDLLEILEIDDLDAIVPAVKKLKV [CEP70] | 2.4 ± 0.46 | 2.87 ± 0.27
4 | FNPEVAKYLKVPQDPLKFYKKIYF [IQUB] | 2.12 ± 0.36 | 2.24 ± 0.043
5 | QSIQQAMRYLRNHCLDQVGLFRKS [DLC1] | 2.73 ± 0.091 | 2.26 ± 0.28
6 | YMMAKKHLEINPDHPIVETLRQKA [HSP90AB1] | 3.01 ± 0.33 | 3.19 ± 0.39
7 | EICSEPVAASPAPAGERRIYRHRI [ZNF511] | 4.27 ± 0.47 | 4.09 ± 0.26
8 | SSALACTLPTLPAKVYVGVKQEIA [NCF4] | 3.2 ± 0.2 | 3.1 ± 0.35
9 | RNTGAYTSSGLATASFRTSKYLLE [TEKT4] | 3.1 ± 0.26 | 3.16 ± 0.22
10 | ICSLICLLIYTVKIRRFNKAKPEP [TMEM192] | 2.24 ± 0.52 | 2.44 ± 0.63
11 | KCKQVKEKCKEEFVEEIKKLATQH [ZMYND11] | 4.12 ± 0.15 | 4.14 ± 0.23
12 | MHLARCRWASAPPLYTLIDVLKYS [ZSWIM9] | 2.94 ± 0.22 | 2.43 ± 0.35
13 | SYSPASASSGGAGAAVGTGSSYPT [JUNB] | 4.41 ± 0.27 | 4.61 ± 0.094
14 | VVELLLAHGADPTHRLKDGSTMLI [ANKRD17] | 2.13 ± 0.34 | 2.27 ± 0.85
15 | VLIDLWKITKVMDVRLDREHRVAG [CLPTM1] | 2.49 ± 0.68 | 2.57 ± 0.83
16 | EPQPFVTSDVYSSDAAFGGILERY [MYORG] | 3.79 ± 0.095 | 3.87 ± 0.058
17 | EHFGIVPLEAMYMQCPVIAVNSGG [ALG2] | 2.33 ± 0.11 | 2.59 ± 0.37
18 | TGLVGLFVDFFVRLFTQLKFGVVQ [CLCN6] | 2.36 ± 0.36 | 2.54 ± 0.22
19 | DKFVATMYHYLQFAYYKLNDVRQA [P3H4] | 2.75 ± 0.39 | 2.77 ± 0.47
20 | QEVSSVRSLSSTGSLPSHAPPSED [DLC1] | 5.42 ± 0.22 | 5.44 ± 0.24
21 | AEMLGSVVGNWQYFFPVIFSKASS [MAGEA3] | 2.17 ± 0.31 | 2.21 ± 0.35
22 | LLTGQCDFGSNCRFSHMSERDLQE [ZMAT5] | 2.67 ± 0.21 | 2.78 ± 0.17
23 | EEWLDILGNGLLRKKTLVPGPPGS [FKBP8] | 2.62 ± 0.12 | 2.78 ± 0.5

Row | Sequence | protein stability index (treatment: DMSO) | protein stability index (treatment: MLN4924 1 uM, 8 h)
24 | LPIIQSNQVSSNSWGIAGETELAL [DLC1] | 3.52 ± 0.48 | 3.63 ± 0.2
25 | HHFNSSHLEIDDMYTPAYGDFDFD [MYORG] | 4.34 ± 0.11 | 4.23 ± 0.24
26 | FLQKSSVGITVLNLCALSVDRYRA [EDNRA] | 2.69 ± 0.54 | 2.75 ± 0.54
27 | AKQLFRKLNEQSPTRCTLEAGAMT [SEC22B] | 2.45 ± 0.21 | 2.6 ± 0.17
28 | PEITTEDIKAAFAPFGRISDARVV [TIA1] | 3.34 ± 0.21 | 3.3 ± 0.13
29 | FIICIVIAILLYKSKPDRKRAESD [PTPRD] | 2.96 ± 0.72 | 2.97 ± 0.043
30 | FSTWNLDHIIEKKRTIIPTLVEAI [DFFB] | 2.44 ± 0.45 | 2.55 ± 0.34
31 | VHEHDGHLYLGSFRSPFLCRLSLQ [APMAP] | 2.73 ± 0.51 | 2.33 ± 0.41
32 | VLDVNNQSFREQEEPSNKRVRPLA [NET1] | 3.46 ± 0.2 | 3.99 ± 0.28
33 | EEERRRREEEERERLQKEEEKRRR [ACBD3] | 5.59 ± 0.45 | 5.69 ± 0.12
34 | LWEAPPLGAGGGSLLPGAVEQPQP [NEK8] | 4.42 ± 0.13 | 4.36 ± 0.15
35 | LANSWNCLPKHLLHSVNQRFGSNN [KLHDC2] | 2.43 ± 0.33 | 2.3 ± 0.23
36 | TWAMRQRGTHAVVGVATADAPLHS [SPSB1] | 2.72 ± 0.34 | 2.87 ± 0.23
37 | GEKPYKCTHCSKSFRQRAGLIMHQ [ZNF449] | 3.59 ± 0.46 | 3.75 ± 0.27
38 | SRKVTTNKLLLSIIILLELAILGG [VTI1B] | 2.98 ± 0.7 | 2.84 ± 0.65
39 | EDDVSFLMKHKSRKRRLFCTMEPE [TRIM35] | 3.61 ± 0.28 | 3.74 ± 0.19
40 | DREQVSSYNITVTATDGGSPPLST [PCDHGA10] | 4.54 ± 0.24 | 4.74 ± 0.14
41 | EQRANDLEQIMESVKSKIGELEDE [CEP70] | 5.41 ± 0.098 | 5.39 ± 0.18
42 | RSFKEELLCAVCYDPFRDAVTLRC [TRIM35] | 2.58 ± 0.63 | 2.61 ± 0.61
43 | AALIEAIQDRLSNTLQTYIRCRHP [VDR] | 2.49 ± 0.5 | 2.54 ± 0.32
44 | VASKMKETIPLTAEKLCIYTDNSI [CCND1] | 3.15 ± 0.42 | 3.33 ± 0.084
45 | PPGLPAETIKDLMRQFLRGLDFLH [CDK4] | 2.21 ± 0.075 | 2.57 ± 0.7
46 | STRLTRIHLREDLVQDQDLEAIRK [ZER1] | 4.67 ± 0.079 | 4.7 ± 0.14

Row | Sequence | protein stability index (treatment: DMSO) | protein stability index (treatment: MLN4924 1 uM, 8 h)
47 | AYDFHGSWEKVTGHNSPLYKRQEE [CHIT1] | 4.33 ± 0.37 | 4.14 ± 0.45
48 | PAFDALGQLTGGYKPNPQIYVKLI [OAS1] | 2.34 ± 0.14 | 2.15 ± 0.26
49 | CDDGGDGRGAVVPGAGLRRPTYTP [ZBTB22] | 4.35 ± 0.23 | 4.25 ± 0.26
50 | AQALRQELERQRRLLGSVQQDLER [PBXIP1] | 4.08 ± 0.091 | 4.23 ± 0.12
51 | LSFATRFHRLDEPPHICWDETHFG [POMT2] | 2.25 ± 0.29 | 2.25 ± 0.26
52 | VMTLPSDLRKHRRKLLSPVSREEN [PPFIA4] | 3.61 ± 0.24 | 3.9 ± 0.49
53 | QSLKGHLRNNFQKQLLSNKELILD [ZC2HC1C] | 3.08 ± 0.3 | 3.17 ± 0.29
54 | RCLVRCLLRREPAERLTATGILLH [TRIB3] | 2.38 ± 0.43 | 2.44 ± 0.26
55 | ENEQRRLFIQKEEQLQQILKRKNK [MNAT1] | 4.38 ± 0.18 | 4.21 ± 0.2
56 | VLFSTHTLDKCGICQGDGSSCTHV [ADAMTSL2] | 3.8 ± 0.22 | 4.09 ± 0.19
57 | KTLKAENAGLSSTAGLLREQVAQL [JUNB] | 3.72 ± 0.38 | 4 ± 0.15
58 | ENKESWDKILALVPETIHDELQQS [PRIM1] | 4.82 ± 0.3 | 4.72 ± 0.39
59 | YQSYFKTIEELQQKILCSKSENAR [KRT33B] | 2.57 ± 0.38 | 2.84 ± 0.49
60 | TEHEKKQKLETDAMFRLEHGEADR [YJU2B] | 5.32 ± 0.12 | 5.46 ± 0.3
61 | RRCTNIRPGETGMDVTSRCTLGDP [KLHL20] | 3.99 ± 0.24 | 4.13 ± 0.21
62 | ELNNCISMLVAGNDRVQTIITQLE [TRIM63] | 2.25 ± 0.39 | 2.38 ± 0.11
63 | VSNTYVKQKTSAALSTMGTLICRK [TPD52L3] | 3.41 ± 0.55 | 2.98 ± 0.41
64 | KKEDTEKERDLRDVGDWRKNIEEK [TNNI2] | 5.38 ± 0.26 | 5.39 ± 0.21
65 | ERTYSANCSDFLESKGCFANTTPS [SPATS1] | 3.67 ± 0.14 | 3.56 ± 0.18
66 | CRPLQFQPSKSHKKVLKKMLKFLA [ATE1] |  | 3.43 ± 0.17
67 | QLGTAGQGFSYSKSNGRGGSQAGG [MYOZ1] | 4.54 ± 0.2 | 4.93 ± 0.71
68 | QSVKMKDKLKIDLLPDGRHAVVEV [TAF7L] | 2.87 ± 0.32 | 3.06 ± 0.36
69 | KISKEEMVRRLKMVVKTFMDMDQD [PDS5B] | 2.26 ± 0.21 | 2.23 ± 0.25

Row | Sequence | protein stability index (treatment: DMSO) | protein stability index (treatment: MLN4924 1 uM, 8 h)
70 | TKFDRDGNRILDEKEQEKMRQDLE [PKD2L1] | 5.12 ± 0.34 | 5.36 ± 0.35
71 | DTEVITVEKSSPATSLFVELDEEE [BCL2L13] | 5.39 ± 0.065 | 5.54 ± 0.25
72 | EKLSRGLRYYYDKNIIHKTSGKRY [ETS2] | 2.74 ± 0.34 | 2.92 ± 0.2
73 | ARIRDEEAQRASFLQNAVLAYVQA [LRRC45] | 2.46 ± 0.2 | 2.49 ± 0.29
74 | LSVQQPTALALEPDAIRSRSNTLR [PCDHGC5] | 4.43 ± 0.17 | 4.56 ± 0.19
75 | PITAHAEVEVVEEAKCCCFFKRKR [CSNK1G1] | 2.96 ± 0.73 | 3.23 ± 1.2
76 | VTTTSSASVTTTSNASGRRTSDVR [KRT13] | 5.07 ± 0.15 | 5.24 ± 0.15
77 | PQQHFLEEKQASLWVQGDIFRSKL [CDC14A] | 3.12 ± 0.18 | 3.14 ± 0.28
78 | TWALYNLVSVYPDKYCPLLIKEGG [ZER1] | 2.62 ± 0.99 | 2.26 ± 0.34
79 | PLLCPSYQSYFKTIEELQQKILCA [KRT34] | 4 ± 0.19 | 
80 | RSFSDKQKISLLHSCTCVLYTPSN [ALG2] | 2.17 ± 0.28 | 2.1 ± 0.32
81 | DVKRLGKQNARFLTSMRRLSSIKR [STX11] | 2.9 ± 0.35 | 2.98 ± 0.42
82 | DDLVPKGKKFLLLSINRYERKKNL [ALG2] | 2.58 ± 0.092 | 2.67 ± 0.29
83 | QPSDRLMTEKQQEEAEWESINVLL [CEP70] | 4.38 ± 0.11 | 4.33 ± 0.12
84 | PQNGSETGWARKGLGNTWPGASGS [ATP23] | 4.32 ± 0.24 | 4.33 ± 0.34
85 | DLMVEATPRRVFANAHTYHINSIS [PPP2R2B] | 2.58 ± 0.23 | 2.49 ± 0.3
86 | ELLDLSKQYDQQFPDGDDEFDSPH [STX11] | 4.89 ± 0.2 | 4.9 ± 0.17
87 | QVSQVKGAARLALLQGAGLDVERW [FCHSD1] | 2.89 ± 0.32 | 3.16 ± 0.49
88 | VRRECWFLPTALLCAYGFFASLRP [SLC19A2] | 2.95 ± 0.29 | 2.93 ± 0.28
89 | FRYLQGMLEAGEGGDWPGPGGPRN [PDLIM4] | 2.76 ± 0.12 | 3.64 ± 0.49
90 | PRRLGRLKYQAPDIDVQLSSELTD [NOP53] | 4.11 ± 0.48 | 4.14 ± 0.34
